Assay results reported in the RNAGym collection of RNA variant scans (doi:10.7554/elife.80360).

B1: Hammerhead Ribozyme (parent)
chain: ACCGGAUGUGCUUUCCGGUCUGAUGAGUCCGUGAGGACGAAACAG

Variants of: B1
Experiment: self-cleavage, relative activity (ratio to wild type); higher = more cleavage; co-transcriptional

| Variant | self-cleavage |
| --- | --- |
| ACCGGAUGUGCAUGCCGGUCUGAUGAGUCCGUGAGGACGAAACAG [U12A U14G] | 0.565 |
| ACCGGAUGUCCUUUCCGGUCUGAUGAGUCCGUGAGGAGGAAACAG [G10C C38G] | 0.582 |
| ACCGGAUGUGCUUUCCGGUCUGAUGAGUCGGUGAGAACGAAACAG [C30G G36A] | 0.553 |
| ACCGGAUGUGCUUACCGGUCAGAUGAGUCCGUGAGGACGAAACAG [U14A U21A] | 0.542 |
| ACCGGAUGUGCUUUCCGGUCUGAUGAGUCCGUGAGGACGAAAUAA [C43U G45A] | 0.419 |
| ACCGGAUGUGCAUUCCGGUCUGAAGAGUCCGUGAGGACGAAACAG [U12A U24A] | 0.937 |
| ACCGGAUGUGCUUUCCGGUCUGAUGAGUUCGUGAGGACUAAACAG [C29U G39U] | 0.369 |
| ACCGGAUGUGCUGUCCGGUCUCAUGAGUCCGUGAGGACGAAACAG [U13G G22C] | 0.315 |
| ACCGGAUGUGCUUUCCGAUCUGAUGAGUCCGUGAGGACGAAACCG [G18A A44C] | 0.479 |
| ACCGGAUGUGCUUUCCGGUCUGAUGCGUCCGUGAGGACGAAAUAG [A26C C43U] | 0.343 |
| ACCGGAUGUGCUUUCCGGUCUGUUGAGUCCGUGAGGACGAAACUG [A23U A44U] | 0.336 |
| ACCGGAUGUGCUUUCCGGUCUGCUGAGUCCGGGAGGACGAAACAG [A23C U32G] | 0.383 |
| ACCGGAUGUGCUGUCCGGUCUGAUGAGUCCGUGAGGACGAAACAU [U13G G45U] | 0.702 |
| ACCGGAUGUGCAUUCCGGUCUGAUGAGUCCCUGAGGACGAAACAG [U12A G31C] | 0.801 |
| ACCGGAUGUCCUUUCCGGUCUAAUGAGUCCGUGAGGACGAAACAG [G10C G22A] | 0.338 |
| ACAGGAUGUGCUUUCCUGUCUGAUGAGUCCGUGAGGACGAAACAG [C3A G17U] | 0.874 |
| ACCGGAUGUGCUUGCCGGUCUGAUGAGUCCGUGAGGAUGAAACAG [U14G C38U] | 0.796 |
| ACCGGAUGUGCUUUCCGGUCUGAUUAGUCCGUGAGGACGAAUCAG [G25U A42U] | 0.349 |
| ACCGGAUGUGCUCUCCGGUCUGAUGAGUGCGUGAGGACGAAACAG [U13C C29G] | 0.723 |

| Variant | self-cleavage |
| --- | --- |
| ACAGGAUGUGCUUUCCGGUCUGAUGAGUCCGUGAGGACGAAACAG [C3A] | 0.772 |
| ACCGUAUGUGCUUUACGGUCUGAUGAGUCCGUGAGGACGAAACAG [G5U C15A] | 1.43 |
| ACCGGAAGUGCUUCCCGGUCUGAUGAGUCCGUGAGGACGAAACAG [U7A U14C] | 1.17 |
| ACCGGAUGUGCUUUCCAGUCUGAUGAGUCCGUGAGGAUGAAACAG [G17A C38U] | 0.586 |
| ACCGGAGGUGCUUUCCUGUCUGAUGAGUCCGUGAGGACGAAACAG [U7G G17U] | 0.548 |
| ACCGGAUGUGCUUUCCGGUAUGAUGAGUCCGUAAGGACGAAACAG [C20A G33A] | 0.651 |
| ACCGGAUGUGCUUUCCGGUCUGAGGAGUCCGUGAGGACGAAACAA [U24G G45A] | 0.541 |
| ACCGGAUGUGCUUUCCGUUCAGAUGAGUCCGUGAGGACGAAACAG [G18U U21A] | 0.381 |
| ACCGGAUGUGCUUUCCGGUCUGACGAGUCCGUGAUGACGAAACAG [U24C G35U] | 0.655 |
| ACCGAAUGUGCUUUCCGGUCUGAUGCGUCCGUGAGGACGAAACAG [G5A A26C] | 0.464 |
| ACCUGAUGUGCUUUCCGGUCUGAUGAGUCCGUGAGGACGAAUCAG [G4U A42U] | 0.307 |
| ACCGGAUGUGCUUUCCGGUCUGAUAAGUCCGUGAGGACGAGACAG [G25A A41G] | 0.337 |
| ACCGGAUGUGCUUUCCGCUCUGAUGAGUCCGUGAGAACGAAACAG [G18C G36A] | 0.347 |
| ACCGGAUUUGCUUUCCGGUCUGAUGAGUCCGUGAGGACGAUACAG [G8U A41U] | 0.34 |
| ACCGGAUGUGCUUUCCGGUCUGAUGAGUCCGAGAGGACGAAUCAG [U32A A42U] | 0.373 |
| ACCGGAUGAGCUUUCCGGUCUGAUGAGUCCGUGAGGACGAAACAU [U9A G45U] | 0.638 |
| ACCGGAUGAGCUUUCCGGUCUGAUGAGUCCGUGAGGACGAAACAC [U9A G45C] | 0.609 |
| ACCGGAUGUGCUUUCCGGUCUGAUGAGUCUGUAAGGACGAAACAG [C30U G33A] | 1.02 |
| ACCGGAUGUGCUUUCCGGUCUGACGAGUCCGUGAGGAGGAAACAG [U24C C38G] | 0.601 |

| Variant | self-cleavage |
| --- | --- |
| ACCCGAUGUGCUUUCCGGUCUGAUGAGUCCGUGAGGACGAAAGAG [G4C C43G] | 0.315 |
| ACCGGAUGUGCUUUCCGGUCGGAUGAGUCCGUGAGGACGAACCAG [U21G A42C] | 0.393 |
| ACCGGAUGUGCUUUCCGGUCUGAUGAGUCCGUGAGGUCGAAAGAG [A37U C43G] | 0.271 |
| ACCGGAUGUGCUUUCCGGUCUCAUGAGUCCGUGAGGACGAAACAA [G22C G45A] | 0.328 |
| GCCGGAUGUGCUUUCCGGUCUGAUGCGUCCGUGAGGACGAAACAG [A1G A26C] | 0.571 |
| ACCGGAUGCGCUUUCCGGUCUGAUGAGUCCGAGAGGACGAAACAG [U9C U32A] | 0.837 |
| ACCGGAUGUGCUUUCCGGUCUGAUGAGUCCAUGAGGACGAAACAG [G31A] | 1.03 |
| GCCGGAUGUGCUUUCCGGUCUGAUGAGUACGUGAGGACGAAACAG [A1G C29A] | 0.835 |
| ACCGGAUGUGCUUUCCGGUCUGGUGAGUCCGAGAGGACGAAACAG [A23G U32A] | 0.387 |
| ACCGGAUGUGCUUUCCGGUCUGAUGAGUCCGUGAGGACUAAACAA [G39U G45A] | 0.351 |
| ACCGCAUCUGCUUUCCGGUCUGAUGAGUCCGUGAGGACGAAACAG [G5C G8C] | 0.77 |
| ACCGGAUGUGGUUUCCGGUCUGAUAAGUCCGUGAGGACGAAACAG [C11G G25A] | 0.288 |
| ACCGGAUGUGCUUUCUGGUCCGAUGAGUCCGUGAGGACGAAACAG [C16U U21C] | 0.473 |
| ACCGGAUGUGCUUUCCGGUCUGAUGAGUCCGUGGGGACGUAACAG [A34G A40U] | 0.334 |
| ACCGGAUGUGCUUUUCGGUCUGAUGAGUCCGCGAGGACGAAACAG [C15U U32C] | 0.93 |
| ACCGGAUGUGCUUUGCGGUCUGAUGAGUCCGUGAGGACGAAAAAG [C15G C43A] | 0.262 |
| ACCGGGUGUGCUUUUCGGUCUGAUGAGUCCGUGAGGACGAAACAG [A6G C15U] | 0.811 |
| ACCGGAUGUGCUUGCCGGUCUGAUGAGUCCGUGUGGACGAAACAG [U14G A34U] | 0.782 |
| UCCGGAUGUGCUAUCCGGUCUGAUGAGUCCGUGAGGACGAAACAG [A1U U13A] | 1.02 |
